Measurements from patent US20120316071A1 (published 2012).

How the values were obtained:
[1] = molecular target: T1, Recombinant Human DLL4 (R&D Systems Cat#1506-D4/CF) (human, UniProt Q9NR61 27-524); test: MSD Multispot ECL, antigen spotted on plate, Fab at 120 nM; blank spot 363
T1 construct: Bought recombinant protein; also called rHuman DLL4; delta-like protein 4

[2] = molecular target: T2, rHuman Notch-1/Fc Chimera, CF (R&D Systems Cat#3647-TK) (human, UniProt P46531 19-526); test: as above
T2 construct: Bought Fc chimera; Fc part of the bought chimera not given

[3] = molecular target: T3, rHuman CD44/Fc Chimera, CF (R&D Systems Cat#3660-CD) (human, UniProt P16070 21-220); test: as above
T3 construct: Bought Fc chimera; Fc part of the bought chimera not given

[4] = molecular target: T4, rHuman P-Cadherin/Fc Chimera, CF (R&D Systems Cat#861-PC) (human, UniProt P22223 108-654); test: as above
T4 construct: Bought Fc chimera; Fc part of the bought chimera not given

[5] = molecular target: T5, rHuman Erythropoietin R/Fc Chimera, CF (R&D Systems Cat#963-ER) (human, UniProt P19235 25-250); test: as above
T5 construct: Bought Fc chimera; also called EPO R/Fc; Epo R; Fc part of the bought chimera not given
T5 sequence (looked up): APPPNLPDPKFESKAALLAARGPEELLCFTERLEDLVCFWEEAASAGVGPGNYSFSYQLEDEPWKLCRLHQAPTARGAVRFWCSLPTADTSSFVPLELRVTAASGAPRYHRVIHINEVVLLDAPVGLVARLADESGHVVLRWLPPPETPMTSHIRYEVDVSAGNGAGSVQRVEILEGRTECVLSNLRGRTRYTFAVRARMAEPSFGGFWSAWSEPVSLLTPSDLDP

[6] = molecular target: T6, rHuman Erythropoietin R/Fc Chimera, CF (R&D Systems Cat#963-ER) (human, UniProt P19235 25-250); test: ECL multispot (MSD) assay, spotted antigen; Fab 200.00 (head prints uM)
T6 construct: Bought recombinant protein; also called EPO R; EPO R/Fc; Fc part of the bought chimera not given
T6 sequence (looked up): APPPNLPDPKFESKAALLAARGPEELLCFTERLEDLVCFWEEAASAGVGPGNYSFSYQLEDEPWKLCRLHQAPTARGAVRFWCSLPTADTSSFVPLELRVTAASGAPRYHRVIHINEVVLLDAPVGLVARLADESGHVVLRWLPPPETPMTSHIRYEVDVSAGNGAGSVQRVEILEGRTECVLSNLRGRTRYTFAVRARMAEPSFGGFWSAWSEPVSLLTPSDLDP

[7] = molecular target: T7, Recombinant Human DLL4 (R&D Systems Cat#1506-D4/CF) (human, UniProt Q9NR61 27-524); test: as above
T7 construct: Bought recombinant protein; also called delta-like protein 4

[8] = molecular target: T8, rHuman ErbB2/Fc Chimera, CF (R&D Systems Cat#1129-ER) (human, UniProt P04626 23-652); test: as above
T8 construct: Bought recombinant protein; Fc part of the bought chimera not given

[9] = molecular target: T9, rHuman Notch-1/Fc Chimera, CF (R&D Systems Cat#3647-TK) (human, UniProt P46531 19-526); test: as above
T9 construct: Bought recombinant protein; Fc part of the bought chimera not given

[10] = molecular target: T10, rHuman P-Cadherin/Fc Chimera, CF (R&D Systems Cat#861-PC) (human, UniProt P22223 108-654); test: as above
T10 construct: Bought recombinant protein; Fc part of the bought chimera not given

[11] = molecular target: T11, rHuman IGF-1 sR, CF (R&D Systems Cat#391-GR) (human, UniProt P08069 31-932); test: ECL Multispot (MSD) assay, antigen spotted on plate, 10 nM Fab; blank spot of this row 344
T11 construct: Bought soluble receptor; The column head prints only 'IGF-1'; also called insulin-like growth factor-1 soluble receptor

[12] = molecular target: T12, rHuman P-Cadherin/Fc Chimera, CF (R&D Systems Cat#861-PC) (human, UniProt P22223 108-654); test: as above
T12 construct: Bought reagent; Fc part of the bought chimera not given

[13] = molecular target: T13, rHuman Erythropoietin R/Fc Chimera, CF (R&D Systems Cat#963-ER) (human, UniProt P19235 25-250); test: as above
T13 construct: Bought reagent; also called EPO R; EPO R/Fc; Fc part of the bought chimera not given
T13 sequence (looked up): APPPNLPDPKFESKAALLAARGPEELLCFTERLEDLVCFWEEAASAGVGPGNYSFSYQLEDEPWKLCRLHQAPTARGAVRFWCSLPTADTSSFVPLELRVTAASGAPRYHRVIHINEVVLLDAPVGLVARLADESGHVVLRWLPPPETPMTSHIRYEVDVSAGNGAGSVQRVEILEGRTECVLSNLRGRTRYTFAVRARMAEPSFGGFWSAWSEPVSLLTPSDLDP

[14] = molecular target: T14, rHuman ErbB2/Fc Chimera, CF (R&D Systems Cat#1129-ER) (human, UniProt P04626 23-652); test: as above
T14 construct: Bought reagent; also called human epidermal growth factor 2 receptor; Fc part of the bought chimera not given

[15] = molecular target: T15, rHuman EGF R/Fc Chimera, CF (R&D Systems Cat#344-ER) (human, UniProt P00533 25-645); test: as above
T15 construct: Bought reagent; also called epidermal growth factor receptor; Fc part of the bought chimera not given

[16] = molecular target: T16, rHuman HGF R/c-MET/Fc Chimera, CF (R&D Systems Cat#358-MT/CF) (human, UniProt P08581 25-932); test: as above
T16 construct: Bought reagent; also called HGF R/Fc; hepatocyte growth factor receptor; Fc part of the bought chimera not given
T16 sequence (P08581 25-932, change not shown): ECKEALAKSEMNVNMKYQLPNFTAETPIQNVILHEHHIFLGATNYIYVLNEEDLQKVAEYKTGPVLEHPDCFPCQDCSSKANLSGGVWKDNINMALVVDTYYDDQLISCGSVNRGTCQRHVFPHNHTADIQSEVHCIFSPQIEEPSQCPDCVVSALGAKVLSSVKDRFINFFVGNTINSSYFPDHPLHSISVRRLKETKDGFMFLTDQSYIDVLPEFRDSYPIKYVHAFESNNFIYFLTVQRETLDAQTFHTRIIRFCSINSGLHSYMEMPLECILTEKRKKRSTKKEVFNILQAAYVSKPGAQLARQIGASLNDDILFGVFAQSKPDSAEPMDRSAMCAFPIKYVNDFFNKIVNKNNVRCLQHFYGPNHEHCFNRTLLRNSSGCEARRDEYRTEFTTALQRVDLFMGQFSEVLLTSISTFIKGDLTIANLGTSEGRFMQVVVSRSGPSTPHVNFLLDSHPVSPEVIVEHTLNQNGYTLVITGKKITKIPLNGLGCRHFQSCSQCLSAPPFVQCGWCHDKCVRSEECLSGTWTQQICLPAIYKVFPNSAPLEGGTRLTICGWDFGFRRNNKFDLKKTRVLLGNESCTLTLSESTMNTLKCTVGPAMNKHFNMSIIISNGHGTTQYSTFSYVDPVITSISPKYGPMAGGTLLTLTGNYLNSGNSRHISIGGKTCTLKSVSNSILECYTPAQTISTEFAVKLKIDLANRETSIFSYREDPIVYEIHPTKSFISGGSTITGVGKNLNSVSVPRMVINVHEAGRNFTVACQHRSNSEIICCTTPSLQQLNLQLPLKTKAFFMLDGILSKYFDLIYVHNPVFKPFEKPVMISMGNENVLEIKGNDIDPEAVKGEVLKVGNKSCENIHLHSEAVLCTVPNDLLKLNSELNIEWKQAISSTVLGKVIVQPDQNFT

[17] = molecular target: T17, rHuman Notch-1/Fc Chimera, CF (R&D Systems Cat#3647-TK) (human, UniProt P46531 19-526); test: as above
T17 construct: Bought reagent; Fc part of the bought chimera not given

[18] = molecular target: T18, rHuman CD44/Fc Chimera, CF (R&D Systems Cat#3660-CD) (human, UniProt P16070 21-220); test: as above
T18 construct: Bought reagent; Fc part of the bought chimera not given

[19] = molecular target: T19, rHuman Erythropoietin R/Fc Chimera, CF (R&D Systems Cat#963-ER) (human, UniProt P19235 25-250); test: ECL Multispot (MSD), antigen spotted; Fab 500 (µM); blank 439
T19 construct: Bought recombinant protein; also called EPO R; EPO R/Fc; Fc part of the bought chimera not given
T19 sequence (looked up): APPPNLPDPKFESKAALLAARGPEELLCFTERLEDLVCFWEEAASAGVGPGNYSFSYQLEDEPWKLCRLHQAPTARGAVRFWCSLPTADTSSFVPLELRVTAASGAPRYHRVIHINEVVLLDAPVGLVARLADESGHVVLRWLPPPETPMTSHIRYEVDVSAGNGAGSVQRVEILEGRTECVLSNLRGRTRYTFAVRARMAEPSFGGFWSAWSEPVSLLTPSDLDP

B1: Fab VH6-1_IGHD3-3*01_IGHJ4*01 & V4-3_IGLJ4*01 (Fab, V domains shown)
VH: QVQLQQSGPGLVKPSQTLSLTCAISGDSVSSNSAAWNWIRQSPSRGLEWLGRTYYRSKWYNDYAVSVKSRITINPDTSKNQFSLQLNSVTPEDTAVYYCAREYYDFWSGYYTDYFDYWGQGTLVTVSS
VL: QPVLTQPTSLSASPGASARLTCTLRSGINLGSYRIFWYQQKPESPPRYLLSYYSDSSKHQGSGVPSRFSGSKDASSNAGILVISGLQSEDEADYYCMIWHSSASFVFGGGTQLIIL
notes: Tested as a purified germline Fab made in E. coli; The VH was cloned into plasmid A (CH1 constant region, His6 and Flag tags) and the lambda VL into plasmid E (lambda CL)
Q: Which results are given for B1?
A: ECL signal [1]: 938; ECL signal [2]: 472; ECL signal [3]: 442; ECL signal [4]: 450; ECL signal [5]: 431

B2: Fab VH5-51_IGHD5-18*01>3_IGHJ4*01 G100K/G104T & V3-4_IGLJ1*01 (Fab, V domains shown)
VH: EVQLVQSGAEVKKPGESLKISCKGSGYSFTSYWIGWVRQMPGKGLEWMGIIYPGDSDTRYSPSFQGQVTISADKSISTAYLQWSSLKASDTAMYYCARRKYSYTYDYFDYWGQGTLVTVSS
VL: QTVVTQEPSFSVSPGGTVTLTCGLSSGSVSTSYYPSWYQQTPGQAPRTLIYSTNTRSSGVPDRFSGSILGNKAALTITGAQADDESDYYCVLYMGSGISYVFGTGTKVTVL
notes: Tested as a Fab; The constant parts are the same as for the parent Fab (CH1 with His6/Flag tags, lambda CL); also called KT double mutant; H:KT
Q: With B2 as the binder, how does the ECL signal/noise ratio [6] read?
A: 1.7

Q: What about the ECL signal/noise ratio [7] of the same binder?
A: 76.9

Q: What about the ECL signal/noise ratio [8] of the same binder?
A: 1.7

Q: And the ECL signal/noise ratio [9]?
A: 1.7

Q: And the ECL signal/noise ratio [10]?
A: 2

B3: Fab VH1-46_IGHD6-6*01_IGHJ1*01 S102A/S103P/S104F (APF) & L6_IGKJ1*01 (Fab, V domains shown)
VH: QVQLVQSGAEVKKPGASVKVSCKASGYTFTSYYMHWVRQAPGQGLEWMGIINPSGGSTSYAQKFQGRVTMTRDTSTSTVYMELSSLRSEDTAVYYCAREEYAPFSAEYFQHWGQGTLVTVSS
VL: not shown
notes: Tested as a Fab made in E. coli; also called H:APF & L:wt; APF triple mutant
Q: With B3 as the binder, how does the ECL signal [11] read?
A: 293

Q: And the ECL signal [12]?
A: 293

Q: And the ECL signal [13]?
A: 389

Q: And the ECL signal [14]?
A: 356

Q: And the ECL signal [15]?
A: 371

Q: What about the ECL signal [16] of the same binder?
A: 434

Q: And the ECL signal [17]?
A: 363

Q: And the ECL signal [18]?
A: 417

B4: Fab VH1-46_IGHD6-6*01_IGHJ1*01 S102A/S103P/S104F (APF) & L6_IGKJ1*01 (Fab, V domains shown)
VH: QVQLVQSGAEVKKPGASVKVSCKASGYTFTSYYMHWVRQAPGQGLEWMGIINPSGGSTSYAQKFQGRVTMTRDTSTSTVYMELSSLRSEDTAVYYCAREEYAPFSAEYFQHWGQGTLVTVSS
VL: not shown
notes: Tested as a Fab made in E. coli: VH cloned in Plasmid A (CH1 constant region, His6 and Flag tags), VL in Plasmid C (kappa constant region); also called H:APF & L:wt; APF triple mutant
Q: With B4 as the binder, how does the ECL signal [19] read?
A: 1210
